The results in this text go back to the supplement of paper PMC9233669.

Fewer inactive variants are shown than the library holds.

The test system of one data set is biotinyl-Phe-oxazolone. The experiment in a line: self-aminoacylation, catalytic enhancement (BFO) (fold over background); higher = more active; k-Seq, kA / k0A0; sequences stand for … in GGGAAUGGAUCCACAUCUACGAAUUC…UUCACUGCAGACUUGACGAAGCUG
The method in brief:
(§1)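 Working in 50 μL HEPES/NaCl/KCl/MgCl2/CaCl2 buffer with 5% acetonitrile at pH 6.9–7.0, mutagenized RNA pools (0.43 μM; 21-nt variable region) were reacted with 2–1250 μM of each biotinyl-aminoacyl-oxazolone for 90 minutes at room temperature. Streptavidin capture followed, with quantification by triplicate qPCR and Illumina sequencing. Catalytic enhancement is reported as median kA over the uncatalyzed rate, the low-activity peak of a bimodal Gaussian fit to the data.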

The test system of a further data set is biotinyl-Trp-oxazolone. Kind of data set: self-aminoacylation, catalytic enhancement (BWO) (fold over background); higher = more active; k-Seq, kA / k0A0; sequences stand for … in GGGAAUGGAUCCACAUCUACGAAUUC…UUCACUGCAGACUUGACGAAGCUG
The method in brief: as §1

As to “ACGUUUGCUAAUAGUCGCAAG [Fam3.1 aminoacylation ribozyme variant]”, the values for the self-aminoacylation in the data set with biotinyl-Phe-oxazolone and in the data set with biotinyl-Trp-oxazolone were 9.06 and 3.66, respectively.
The like results for “CUACUUCAAACAAUCGGUGUG [Fam1A.1 aminoacylation ribozyme variant]” were, in that order, 10.2 and 5.78.
The like results for “AAGUUAGCUAAUAGUCGUAAG [Fam3.1 aminoacylation ribozyme variant]” were, in that order, 14 and 3.54.
In the case of “CUACUUCAAACAAUCGGUCUC [Fam1A.1 aminoacylation ribozyme variant]”, the self-aminoacylation turned out to be 52.6 in the data set with biotinyl-Phe-oxazolone and 24.6 in the data set on biotinyl-Trp-oxazolone.
The like results for “CAACAUCAAACAAUCGGUCUG [Fam1A.1 aminoacylation ribozyme variant]” were, in that order, 7.46 and 3.73.
In the case of “CAAAUUCAAACAAUCGGUCUG [Fam1A.1 aminoacylation ribozyme variant]”, the self-aminoacylation in the data set on biotinyl-Phe-oxazolone was 6.39; in the data set on biotinyl-Trp-oxazolone, 3.94.
The like results for “CGACUCCAAACAAUCGGUCUG [Fam1A.1 aminoacylation ribozyme variant]” were, in that order, 3.55 and 3.11.
For “CAACUUCAAACAAUCGGUCCG [Fam1A.1 aminoacylation ribozyme variant]”, the self-aminoacylation in the data set on biotinyl-Phe-oxazolone was 5.44; in the data set on biotinyl-Trp-oxazolone, 4.86.
The like results for “CUAAUUCAAACAAUCGGCCUG [Fam1A.1 aminoacylation ribozyme variant]” were, in that order, 5.4 and 3.89.
Consider “CUCCUUCAAACAAUCGGUGUG [Fam1A.1 aminoacylation ribozyme variant]”, for which the self-aminoacylation is 8.49 with biotinyl-Phe-oxazolone and 6.8 with biotinyl-Trp-oxazolone.
The like results for “CUACUUCAAACAAUCGGUUUA [Fam1A.1 aminoacylation ribozyme variant]” were, in that order, 4.11 and 2.11.
For the sequence “CAACUUCAAACAAUCGGUCUC [Fam1A.1 aminoacylation ribozyme variant]”, the values for the self-aminoacylation with biotinyl-Phe-oxazolone and in the data set on biotinyl-Trp-oxazolone were 75.3 and 37.7, respectively.
On to “AAGUAUGCUAAUAGUCGCACG [Fam3.1 aminoacylation ribozyme variant]”, for which the self-aminoacylation in the data set on biotinyl-Trp-oxazolone was found to be 2.03.
On to “AUUCACCUCGGUCAUCAGGUG [Fam2.2 aminoacylation ribozyme variant]”, for which the self-aminoacylation was found to be 4.3 in the data set on biotinyl-Phe-oxazolone and 2.02 in the data set with biotinyl-Trp-oxazolone.
Turning to “CCUCACUUCAAUCAAUCGGUC [Fam1B.1 aminoacylation ribozyme variant]”, the results for the self-aminoacylation in the data set on biotinyl-Phe-oxazolone and in the data set on biotinyl-Trp-oxazolone were 39.5 and 17.9, respectively.
As to “AUUCACCUAGGUUAUCAGGUG [Fam2.2 aminoacylation ribozyme variant]”, in the data set with biotinyl-Trp-oxazolone, the self-aminoacylation was determined as 2.12.
Take “CUACUUCAAAUAAUCGGACUG [Fam1A.1 aminoacylation ribozyme variant]”: the self-aminoacylation in the data set on biotinyl-Phe-oxazolone is 6.03; in the data set on biotinyl-Trp-oxazolone, 2.71.
For “CAACCCUUCAAGCAAUCGGUC [Fam1B.1 aminoacylation ribozyme variant]” the same measures were 2.9 and 2.72.
On to “CUAAUUCAAACAAUCGGUCUG [Fam1A.1 aminoacylation ribozyme variant]”, for which the self-aminoacylation with biotinyl-Phe-oxazolone turned out to be 7.13; with biotinyl-Trp-oxazolone it was 3.52.
Take “CCAAACUUCAAGCAAUCGGUU [Fam1B.1 aminoacylation ribozyme variant]”: the self-aminoacylation in the data set with biotinyl-Phe-oxazolone turned out to be 5.01; in the data set on biotinyl-Trp-oxazolone, 4.36.
For “CGAGUUCAAACAAUCGGUCUG [Fam1A.1 aminoacylation ribozyme variant]” the same measures were 6.84 and 4.57.
For “CUACUUCAACCAAUCGGUAUG [Fam1A.1 aminoacylation ribozyme variant]”, the values for the self-aminoacylation with biotinyl-Phe-oxazolone and in the data set on biotinyl-Trp-oxazolone were 9.31 and 4.25, respectively.
Take “AGGUGUGCUAAUAGUCGCAAG [Fam3.1 aminoacylation ribozyme variant]”: the self-aminoacylation in the data set on biotinyl-Phe-oxazolone came out at 5.87; with biotinyl-Trp-oxazolone it was 2.52.
For “CUACUUCAAACAAUCGGACUG [Fam1A.1 aminoacylation ribozyme variant]” the same measures were 17.5 and 7.87.
For “GUACUUUAAACAAUCGGUCUG [Fam1A.1 aminoacylation ribozyme variant]”, the self-aminoacylation in the data set on biotinyl-Trp-oxazolone was 2.08.
For “AUACUUCAAACAAUCGGUCUG [Fam1A.1 aminoacylation ribozyme variant]”, the results for the self-aminoacylation in the data set with biotinyl-Phe-oxazolone and with biotinyl-Trp-oxazolone were 14.7 and 9.11, respectively.
As to “ACAAACUUCAAGCAAUCGGUC [Fam1B.1 aminoacylation ribozyme variant]”, the self-aminoacylation worked out at 15 with biotinyl-Phe-oxazolone and 9.7 with biotinyl-Trp-oxazolone.
For the sequence “AAGUUGGCUAAUAGUCUCAAG [Fam3.1 aminoacylation ribozyme variant]”, in the data set with biotinyl-Trp-oxazolone, the self-aminoacylation was found to be 2.27.
As for “CCAGACUUCAAGUAAUCGGUC [Fam1B.1 aminoacylation ribozyme variant]”, the results for the self-aminoacylation with biotinyl-Phe-oxazolone and in the data set on biotinyl-Trp-oxazolone were 11.5 and 8.35, respectively.
“CCACACUUCAAAUAAUCGGUC [Fam1B.1 aminoacylation ribozyme variant]”: the self-aminoacylation in the data set with biotinyl-Phe-oxazolone is 23.8; in the data set on biotinyl-Trp-oxazolone, 13.7.
“CUAAUUCAAACAAUCGGUCUC [Fam1A.1 aminoacylation ribozyme variant]”: the self-aminoacylation in the data set on biotinyl-Phe-oxazolone was 6.39; in the data set with biotinyl-Trp-oxazolone, 2.9.
Regarding “CUAUUUCAAACAAUCGGCCUG [Fam1A.1 aminoacylation ribozyme variant]”, the self-aminoacylation with biotinyl-Phe-oxazolone was 6.32; in the data set with biotinyl-Trp-oxazolone, 6.15.
For “CUACACUUCAAGUAAUCGGUC [Fam1B.1 aminoacylation ribozyme variant]”, the figures for the self-aminoacylation with biotinyl-Phe-oxazolone and in the data set on biotinyl-Trp-oxazolone were 13.1 and 7.07, respectively.
For the sequence “CCACACUUCAAUCGAUCGGUC [Fam1B.1 aminoacylation ribozyme variant]”, the figures for the self-aminoacylation in the data set on biotinyl-Phe-oxazolone and in the data set on biotinyl-Trp-oxazolone were 2.48 and 2.43, respectively.
Turning to “AAGUUUGCUAGUAGUCGCAAA [Fam3.1 aminoacylation ribozyme variant]”, the self-aminoacylation in the data set on biotinyl-Trp-oxazolone is 2.13.
In the case of “CGACUUCAAACAACCGGUCUG [Fam1A.1 aminoacylation ribozyme variant]”, the self-aminoacylation in the data set with biotinyl-Trp-oxazolone came to 2.13.
As to “CCAUACUUCAAUCAAUCGGUC [Fam1B.1 aminoacylation ribozyme variant]”, the self-aminoacylation in the data set with biotinyl-Phe-oxazolone was determined as 31.2; in the data set with biotinyl-Trp-oxazolone, 15.9.
“CUACUUCAAUAAAUCGGUCUG [Fam1A.1 aminoacylation ribozyme variant]”: the values for the self-aminoacylation in the data set on biotinyl-Phe-oxazolone and in the data set on biotinyl-Trp-oxazolone were 7.8 and 4.71, respectively.
On to “CUACUUCAAUGAAUCGGUCUG [Fam1A.1 aminoacylation ribozyme variant]”, for which the self-aminoacylation in the data set with biotinyl-Phe-oxazolone worked out at 7.24; in the data set on biotinyl-Trp-oxazolone it was 5.68.
As for “UUACUCCAAACAAUCGGUCUG [Fam1A.1 aminoacylation ribozyme variant]”, the figures for the self-aminoacylation in the data set on biotinyl-Phe-oxazolone and with biotinyl-Trp-oxazolone were 3.73 and 2.69, respectively.
On to “CCACUUCAAACAAUCAGUCUG [Fam1A.1 aminoacylation ribozyme variant]”, for which the self-aminoacylation in the data set with biotinyl-Phe-oxazolone turned out to be 29.2; in the data set with biotinyl-Trp-oxazolone it was 10.1.
With “CGGCACUUCAAGCAAUCGGUC [Fam1B.1 aminoacylation ribozyme variant]”, the self-aminoacylation in the data set on biotinyl-Phe-oxazolone was 34.7; with biotinyl-Trp-oxazolone, 20.1.
Regarding “CCACACUUCAAUGAAUCGGUC [Fam1B.1 aminoacylation ribozyme variant]”, the self-aminoacylation stood at 14.4 in the data set on biotinyl-Phe-oxazolone and 10.3 in the data set with biotinyl-Trp-oxazolone.
With “CUACUUCAAACAAUCAGUCUG [Fam1A.1 aminoacylation ribozyme variant]”, the values for the self-aminoacylation in the data set with biotinyl-Phe-oxazolone and with biotinyl-Trp-oxazolone were 27.8 and 9.7, respectively.
Turning to “CCAUACUUCAACCAAUCGGUC [Fam1B.1 aminoacylation ribozyme variant]”, the self-aminoacylation in the data set with biotinyl-Phe-oxazolone came to 32.7; in the data set with biotinyl-Trp-oxazolone, 17.2.
Regarding “AAUCACCUAGGUCAUAGGGUG [Fam2.2 aminoacylation ribozyme variant]”, the self-aminoacylation in the data set with biotinyl-Trp-oxazolone was 2.15.
Consider “CCACAAUUCAACCAAUCGGUC [Fam1B.1 aminoacylation ribozyme variant]”, for which the self-aminoacylation in the data set on biotinyl-Phe-oxazolone turned out to be 6.75; in the data set on biotinyl-Trp-oxazolone, 5.9.
In the case of “AAGUUUGCGAAUAUUCGCAAG [Fam3.1 aminoacylation ribozyme variant]”, the self-aminoacylation in the data set with biotinyl-Trp-oxazolone worked out at 2.71.
Consider “AUUACGCUGGUCAUCGAGCGA [Fam2.1 aminoacylation ribozyme variant]”, for which the self-aminoacylation in the data set with biotinyl-Trp-oxazolone amounted to 2.16.
Take “AAGAUUGCUAAUAGCCGCAAG [Fam3.1 aminoacylation ribozyme variant]”: the self-aminoacylation with biotinyl-Trp-oxazolone turned out to be 2.47.
As to “AAUCACCUAGGUCAUCAGGUG [Fam2.2 aminoacylation ribozyme variant]”, in the data set with biotinyl-Trp-oxazolone, the self-aminoacylation came to 2.18.
On to “CCACACUUCAAGAAUUCGGUC [Fam1B.1 aminoacylation ribozyme variant]”, for which, in the data set on biotinyl-Phe-oxazolone, the self-aminoacylation stood at 7.52.
For “AAGGUUGCUAAUAGUCGCACG [Fam3.1 aminoacylation ribozyme variant]”, in the data set with biotinyl-Phe-oxazolone, the self-aminoacylation came out at 2.39.
Same read-out and setting: the value for “AAGUUUGCUGACAGUCGCAAG [Fam3.1 aminoacylation ribozyme variant]” was 2.12; that for “AAGCUUCCUAAUAGUCGCAAG [Fam3.1 aminoacylation ribozyme variant]” was 2.32; that for “AAGUUUCCUAAUGGUCGCAAG [Fam3.1 aminoacylation ribozyme variant]” was 2.62.
For “ACGUUUGCUAAUAGUCGCAGG [Fam3.1 aminoacylation ribozyme variant]”, in the data set with biotinyl-Phe-oxazolone, the self-aminoacylation was determined as 3.87.
